Source: US20010019714A1 (priority 1998, published 2001)

Target: T1, HLA-A2 on T2 cells (Homo sapiens, UniProt P04439, D140Y/D185E/D98H/E176V/E277Q/G131W/G231S/I119V/I121R/I166T/I218V/L300P/L318F/N151K/N90K/P208A/P217A/Q86G/Q94H/R138H/R169H/T345S)
T1 construct: T2 cell line expressing the HLA-A2 molecules; endogenous in cells; host or cells: T2 cell line (TAP-deficient), from Dr Peter Creswell, Yale University
Assay: peptide-induced MHC class 1 assembly assay (HLA-A2 binding and stabilization, FACS)
Format: cell-based
Settings: for binding to HLA-A2 on T2 cells (shift of fluorescent peak): antibody BB7.2, FACS, FIG. 1; for order of potency by comparison of fluorescence indices: fluorescence index = mean fluorescence of peptide treated T2 cells / untreated T2 cells
Protocol: Location of the potential CTL containing motifs of the HIV-1(LAI) Rev protein has been predicted by the reported peptide-binding motif algorithms. […] The ability of the peptides containing these motifs to bind and stablize membrane-bound HLA-A2 molecule was assessed using the T2 cell line. The cell line has been well documented to have defective TAP transporter function resulting in the majority of the intracellularly generated peptides being unable to be transported into the endoplasmic reticulum to associate with the newly synthesized HLA class 1 molecules, i.e. HLA-A2 (see references 4, 5). […] Upon interaction with suitable peptides introduced exogenously, the stability of the HLA-A2 molecules can be restored.
T2 cell line expressing the HLA-A2 molecules was obtained from Dr Peter Creswell at the Howard Hughes Research Institute of Yale University. The cells were propagated in Iscove's complete medium (Iscove's medium supplemented with 10% heat-inactivated bovine serum, 120.0 units per ml of penicilin G sodium, 120 μg per ml of streptomycin sulphate, and 0.35 mg per ml of L-glutamine). The ability of individual 8 to 13 mer peptides, prepared as described in Example 1 and identified in Table 1, to bind and modulate the stability of the A2 molecules on T2 cells was determined using a peptide-induced MHC class 1 assembly assay, which was modified from a protocol described by Yuping Deng et al. (ref. 6).
In essence, 1×10^6 T2 cells were incubated with a specified concentration of the test peptide in 250.0 μl of Iscove's serum-free medium (Iscove's medium supplemented with 120.0 units per ml of penicillin G sodium, 120.0 ug per ml of streptomycin sulphate and 0.35 mg per ml of L-glutamine) in a sterile Eppendorf tube at 37° C. overnight. The cells were then incubated on ice for 30 min before 1.0 ml of Iscove's complete medium supplemented with 5.0 ug per ml of brefeldin A, 12.5 ug per ml of anisomycin and 5.0 ug per ml of cyclohexamide was added. The samples were then incubated for 3.0 hr in a 37° C. CO2 incubator.
In the presence of the drugs, further protein synthesis and intracellular delivery of HLA-A2 molecules to the cell surface are inhibited, and de-stabilization of the conformation of the membrane-bound class 1 molecules at the physiological temperature occurs.
The cells were then washed twice with ice-cold PBA (a buffer containing 0.9% sodium chloride, 0.5% bovine serum albumin and 0.02% sodium azide). 100.0 ul of PBA containing 5.0 ug of a conformation-sensitive HLA-A2-specific mouse monoclonal antibody, BB7.2 (ref. 7), was then added to each test sample. The reaction was allowed to take place on ice for 45 min. The cells were then washed three times with ice-cold PBA.
The binding of BB7.2 was then detected by adding […] containing 1.0 ug of goat anti-mouse IgG F(ab′) fluorescein (FITC) conjugate to each cell sample. After 30 min incubation on ice, the cells were washed twice with PBA, and twice again with PBS, pH 7.2. Cells were fixed immediately after washing was completed by adding 100.0 ul of 1.0% paraformaldehyde to the cell pellet. The cells were gently resuspended and were FACS analysed usually within three days after the experiments were completed.
The fluorescence index, which is an indicator for increased density of membrane-bound A2 molecules, was calculated by dividing the mean fluorescence of an experimental sample (peptide treated T2 cells) by the mean fluorescence of the control sample (T2 cells not treated with peptide).

Row | Sequence | binding to HLA-A2 on T2 cells (shift of fluorescent peak) | order of potency by comparison of fluorescence indices
1 | ILVESPAVL [CLP-72] | capable of binding to HLA-A2 on T2 cells | CLP-177>CLP-72>CLP-178>CLP-182
2 | PLQLPPLERLIL [CLP-182] | capable of binding to HLA-A2 on T2 cells | CLP-177>CLP-72>CLP-178>CLP-182
3 | YLGRSAEPVPL [CLP-178] | capable of binding to HLA-A2 on T2 cells | CLP-177>CLP-72>CLP-178>CLP-182
4 | YLGRSAEPV [CLP-177] | capable of binding to HLA-A2 on T2 cells | CLP-177>CLP-72>CLP-178>CLP-182
